Data as given in US5348941A, “Stabilizers for fibroblast growth factors” (Merck & Co., Inc., priority 1992, dated 1994).

Assays:
Assay type in all cases: biochemical
[1] = target: T1, aFGF (Homo sapiens, UniProt P05230); experiment: Thermal denaturation (Tm) of aFGF by fluorescence spectroscopy; conditions: no heparin, PBS pH 7.2
T1 construct: The recombinant derived, 140 amino add form is the preferred form of aFGF; N-terminal methionine (MetHaFGF); made in house; host or cells: microbial cells (preferred embodiment)
T1 sequence (P05230 16-155 limits assumed): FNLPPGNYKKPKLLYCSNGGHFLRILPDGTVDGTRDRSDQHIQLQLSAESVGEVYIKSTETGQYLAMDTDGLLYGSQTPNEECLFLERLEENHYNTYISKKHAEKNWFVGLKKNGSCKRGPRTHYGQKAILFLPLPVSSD
Procedure: Fluorescence spectra are obtained with a Spex Fluorolog-2 spectrofiuorometer using a 1 mm pathlength cuvette. Band passes from 1-2 nm are employed with sample absorptivities maintained below 0.1 at 280 nm. The temperature is controlled either manually or automatically as described above. Reproducibility of thermal denaturation temperatures (Tm) is ± 2° C.
To more directly ascertain the effect of heparin on aFGF stability, the temperature-induced denaturation of aFGF as a function of heparin concentration was monitored by fluorescence spectroscopy. Fluorescence spectra were obtained with a Spex Fluorolog-2 spectrofiuorometer using a 1 mm pathlength cuvette. Band passes from 1-2 nm were employed with sample absorptivities maintained below 0.1 at 280 nm. The temperature was controlled either manually or automatically as described above. Reproducibility of thermal denaturation temperatures (Tm) was ±2° C. […] Experiments were carried out at 100 μg/ml protein (6.3 μM) in a PBS buffer at pH 7.2. Curve drawn through data points for clarity only.
Studies of the stabilization of aFGF by heparin are difficult to interpret because of the inherent heterogeneity of heparin preparations, Lane and Lindahl, Eds. Heparin, Chemical and Biological Properties, Clinical Applications, Edward Arnold, London (1989); Jackson, et al., Physiol. Rev. 71: 481-539 (1991). In order to better understand the polyanionic stabilization of aFGF, a series of well-defined fragments of heparin were examined for their ability to stabilize aFGF against thermal denaturation. These enzymatically prepared and purified fragments varied in size from a disaccharide to a decasaccharide. Each fragment was incubated with aFGF at a 1:1 weight ratio in a PBS buffer. The sample was then stressed by temperature and structural changes in aFGF were monitored by both circular dichroism and fluorescence spectroscopy. […] All samples contained 100 μg/ml aFGF (6.3 μM)in a PBS buffer (pH 7.2) with 100 μg/ml of each heparin fragment.
Since these fragments of heparin have a well-defined molecular weight, the molar ratio of aFGF to ligand during these thermal denaturation experiments can be calculated. The Tm of aFGF as a function of the molar concentration of the hexasaccharide was measured by fluorescence spectroscopy. Fluorescence spectra were obtained with a Spex Fluorolog-2 spectrofiuorometer using a 1mm pathlength cuvette. Band passes from 1-2 nm were employed with sample absorptivities maintained below 0.1 at 280 nm. The temperature was controlled either manually or automatically as described above. Reproducibility of thermal denaturation temperatures (Tm) was ±2° C.
Analogous to the heparin experiments illustrated in Example 1 (FIG. 3), aFGF thermal stability was monitored by fluorescence spectroscopy as a function of concentration for several other of the polyanions. […] All samples contained 100 μg/ml of aFGF (6.3 μM) in a PBS buffer at pH 7.2.

[2] = target: T1, aFGF; experiment: Thermal denaturation (Tm) of aFGF by circular dichroism; conditions: buffer alone
Procedure: Circular Dichroism (CD) spectra are measured with an AVIV 62 DS spectropolarimeter. Samples of aFGF at about 100 μg/ml in a PBS buffer (6 mM sodium phosphate, 120 mM NaCl, pH 7.2) containing various ligands are placed into 1 mm pathlength cells and the cell temperature is controlled by circulating a water/ethylene glycol mixture through the cell holder. Thermal denaturation is carded out under computer control by increasing the temperature of the water bath in 2° C. increments, followed by a two-minute equilibration period at each temperature to allow the sample to reach thermal equilibrium. Reproducibility of the midpoint of these temperature melting curves (Tm) is ±2° C.
The maximum Tm values induced by 12 different ligands as determined by circular dichroism measurements at 228 nm are summarized in the first column of Table II. All of these ligands stabilize aFGF by 15°-25° C. in a manner similar to that originally observed with heparin. […] Furthermore, sulfate unions are found near analogous residues in the crystal structure of basic FGF, Eriksson et al., Proc. Natl. Acad. Sd. USA 88:3441-3445 (1991); Zhang et al., Proc. Natl. Acad. Sci. USA 88:3446-3450 (1991). Consequently, it seemed important to examine the ability of these ligands to stabilize aFGF during thermal denaturation as monitored by both fluorescence and circular dichroism. The Tm value of aFGF increased from 27° C. to 43° C. (fluorescence)and 45° C. to 51° C. (CD) when a 100 molar excess (3X by weight) of (IrCl6)^-3 was present. Similarly, sulfate union (120 mM) produced a species that was even more dramatically stabilized, melting at 57° C. (CD).
^(a) Thermal melting temperatures were measured by circular dichroism
Samples contained […] aFGF in PBS buffer pH 7.2 with excess ligand
(1-3× by weight except for 120 mM sodium sulfate and 10 mM

[3] = target: T1, aFGF; experiment: Copper-catalyzed oxidation of aFGF thiol groups
Procedure: Copper-catalyzed oxidation of aFGF is carried out in the following manner. Acidic FGF (about 80 μg/ml) is incubated in a 20 mM Tris, 0.15M potassium chloride, pH 8 solution containing about 20 μM cuptic chloride for varying periods of time at room temperature. The reaction was terminated by the addition of 100 mM EDTA in the same buffer. A solution of about 0.7 ml of 0.25M Tris (about pH 8) containing about 2 mM EDTA and about 7 M GuHC1 is then added followed by about 35 μl of 4 mg/ml of DTNB (Sigma). Samples were incubated for 30 minutes, filtered through a 0.22 micron filter and the optical density measured at about 412 nm to determine sulfhydryl content, Riddles et al., Meth. Enzymol. 9:49-60 (1983). Relative standard deviation of the obtained values during time course experiments is 12%.
Acidic FGF contains three free cysteine residues at positions […], 83 and 117 in the polypeptide chain. […] It has also been shown that the copper catalyzed oxidative formation of a disulfide bond in the wild-type aFGF inactivates the protein in an in vitro mitogenic assay, Ortega et al., J. Biol. Chem. 266:5842-5846 (1991). Therefore, it was of interest to determine the extent to which heparin can stabilize aFGF against inactivation by oxidation. […] Samples contained 80 μg/ml aFGF with (a) 3X heparin by weight, (b) 0.1X heparin by weight and (c) buffer alone. As heparin was introduced and its concentration increased, the rate of copper-catalyzed oxidation decreased. For example, after 20 minutes, greater than 95% of the cysteine residues of aFGF are protected from oxidation with 3X heparin. FIG. 4B illustrates the fraction of remaining reactive thiol groups after a 10-minute incubation with cupric chloride as a function of heparin concentration.
Some aggregation of aFGF occurs under the conditions of these experiments presumably due to at least partial intermolecular disulfide formation. Thus, these measurements could simply be a measurement of the loss of solubility induced by copper association with aFGF. Several experiments, however, argue against this possibility. First, previous work has shown that at dilute protein concentration, copper does indeed catalyze oxidation of thiol groups of aFGF, Ortega et al., J. Biol. Chem. 266:5842-5846 (199 1 ). Second, as a control experiment, the copper-catalyzed oxidation of aFGF was carded out in a buffer containing 6 M GuHCl. Under these denaturing conditions, nearly 100% of the thiol groups in solution were lost after 10 minutes without visible aggregation. […] Regardless of the precise mechanism, copper addition is a distinct mechanism of inactivation compared to thermal stress.
Similar protection against oxidation experiments were carried out with other negatively charged compounds with an excess of ligand (3X by weight except for sodium sulfate at 120 mM and tetrapolyphosphate at 10 mM) added to aFGF before copper catalyzed oxidation. As shown in the second column of Table 2, all of these agents at least partially protect the cysteine residues of aFGF from oxidation.
^(b) Percentage of aFGF thiols remaining in solution after 10 min
incubation with cupric chloride. Experimental conditions are described in
FIG. 10. All samples contained ligand at 3× (by weight) except
sodium sulfate (120 mM) and tetrapolyphosphate (10 mM).

[4] = target: T1, aFGF; experiment: Copper-catalyzed oxidation of aFGF thiol groups; conditions: 6 M GuHCl, 10 minutes, 1 μM CuCl2, 5 μM aFGF

aFGF: human acidic fibroblast growth factor, molecular mass of about 15.9 kDa
thermal denaturation temperature (Tm) of aFGF, fluorescence [1]: 27 °C
thermal denaturation temperature (Tm) of aFGF, fluorescence ([1]; listed as native aFGF): < 30 °C
Tm of aFGF, circular dichroism [2]: 45 °C
thiol groups of aFGF lost ([3]; 6 M GuHCl, 10 minutes): ~100%
free thiols of aFGF lost ([3]; 10-minute incubation, absence of polyanions): 60%
total thiol groups of aFGF reacted ([3]; buffer alone, after 6 hours, cupric chloride): 70-75%
thiol groups of aFGF oxidized ([3]; buffer alone, within several minutes, cupric chloride): 50-60%
loss of thiol groups of aFGF [4]: 10%
